Measured values reported in patent US8367815B2, “Modular polynucleotides for ligand-controlled regulatory systems” (California Institute of Technology, priority 2007, dated 2013).

Tested on: La protein
Test: qRT-PCR of La protein mRNA from transfected HEK293T tTA-d2EGFP cells
Type: cell-based
Procedure: (A) qRT-PCR of La protein mRNA from HEK293T tTA-d2EGFP cells transfected in the presence (▪) or absence (□) of 1.5 mM theophylline. […] Error bars represent quadruplicate qRT-PCR measurements. (B) Curve fit to extrapolate empirical parameters C1-3. Dashed line marks knockdown achieved by base shRNA. (C) Model predictions for dynamic range using empirical parameter values for the GFP experiments along with fshRNA=0.6 and e=0.72 (gray curve) and extrapolated values from the La experiments (black curve). (D) Relationship between dynamic range (η) and the free energy difference. The dashed line represents the apparent increase in La mRNA levels upon theophylline addition observed for the base shRNA (shL).
To examine the generality of shRNA switch design and functionality, Applicants designed a set of shRNA switches targeting the endogenous La protein. Following selection of an shRNA sequence that yields moderate knockdown of La as ascertained by qRT-PCR, various switching strand sequences covering a range of ΔG values were combined with the smaller theophylline aptamer to yield six shRNA switches (L1-6). […] As observed for the GFP-targeting shRNA switches, use of the stems method provided a suitable correlation between basal levels and ΔGmethod. Supplying the model with fit values for C1-3 yielded a predicted dynamic range trend that closely matched the experimental data. […]

B1: shL: base shRNA targeting endogenous La protein; sequence in Table I (pCS1457) (nucleic acid)
chain: GGATCCGGCTTCCCAACGATGATGCAACTCCTCGAGTCTAGAGGAGTTGCATCAGTTGGGAAGCCTTTTTTGGAAGCTT
modifications: the letters are possibly those of the target site
1.5 mM theophylline
  response of La mRNA levels to theophylline: not observed
Relative knockdown of La by base shRNA
  fshRNA (La experiments): 0.6
